This is an account of results in patent publication US20140120095A1 (Boehringer Ingelheim, published 2014).

Assay [1] addresses T1, recombinant human DLL4 (C-terminally His-tagged extracellular domain, R&D Systems) (human, UniProt Q9NR61 25-522, biotinylated in the competition ELISA).
T1 construct: also called rhDLL4; hDLL4
The assay can be described thus: SPR (Biacore), rhDLL4. The method, then:
(§1) Kinetic analysis to determine the affinity of the DII4-VHH interaction is performed by Surface Plasmon Resonance (SPR) on a Biacore T100 instrument. […] Purified VHHs or Fab fragment are injected for 2 minutes at different concentrations (between 10 and 300 nM) and allowed to dissociate for 20 min at a flow rate of 45 μl/min. Between sample injections, the surfaces are regenerated with 10 mM glycine pH1.5 and 100 mM HCl. HBS-N (Hepes buffer pH7.4) is used as running buffer. If possible, data are evaluated by fitting a 1:1 interaction model (Langmuir binding) onto the binding curves. The affinity constant KD is calculated from resulting association and dissociation rate constants (kₐ) and […].

Assay [2] concerns the target T2, recombinant mouse DLL4 (C-terminally His-tagged extracellular domain, R&D Systems) (mouse, UniProt Q9JI71 27-532).
T2 construct: extracellular domain; also called rmDLL4; mDLL4
The assay is described as follows: SPR (Biacore), rmDLL4.

Assay [3] deals with T3, human DLL4 expressed on cells (CHO-hDLL4; HEK293-hDLL4) (human, UniProt Q9NR61 27-685). The assay is described as follows: cell-based or functional assay.
The target in assay [4] is T4, cynomolgus DLL4 expressed on CHO cells (cynomolgus, UniProt Q9NR61 27-685 (human entry)).
T4 construct: also called cDLL4; CHO-cDLL4
T4 chain: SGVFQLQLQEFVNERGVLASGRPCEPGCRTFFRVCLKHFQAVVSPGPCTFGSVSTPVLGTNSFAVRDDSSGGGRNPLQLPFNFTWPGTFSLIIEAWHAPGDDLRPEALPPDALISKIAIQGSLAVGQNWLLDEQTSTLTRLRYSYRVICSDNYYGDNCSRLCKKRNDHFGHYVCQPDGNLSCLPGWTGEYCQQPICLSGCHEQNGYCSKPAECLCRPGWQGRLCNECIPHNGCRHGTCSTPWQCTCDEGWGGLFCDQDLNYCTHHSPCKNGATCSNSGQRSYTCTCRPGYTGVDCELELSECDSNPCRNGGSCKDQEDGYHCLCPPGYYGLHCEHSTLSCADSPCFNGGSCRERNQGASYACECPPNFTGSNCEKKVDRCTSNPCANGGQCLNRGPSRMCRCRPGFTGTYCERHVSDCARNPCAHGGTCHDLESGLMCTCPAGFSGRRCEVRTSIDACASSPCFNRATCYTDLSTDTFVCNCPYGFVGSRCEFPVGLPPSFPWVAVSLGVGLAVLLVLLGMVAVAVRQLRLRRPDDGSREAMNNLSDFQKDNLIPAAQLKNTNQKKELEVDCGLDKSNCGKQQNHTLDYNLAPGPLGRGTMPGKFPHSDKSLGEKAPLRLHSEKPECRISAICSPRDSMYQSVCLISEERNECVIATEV
The assay can be described thus: FACS on CHO-cDLL4 cells.

Assay [5] addresses T3, human DLL4 expressed on cells …. The assay can be described thus: FACS on CHO-hDLL4 cells.
For assay [6], the target named is T1, recombinant human DLL4 (C-terminally …). The assay is described as follows: SPR (Biacore); summary table.
Assay [7] has as its target T2, recombinant mouse DLL4 (C-terminally …). The assay is described as follows: SPR (Biacore); summary table.
For assay [8], the target named is T3, human DLL4 expressed on cells …. The assay is described as follows: competition FMAT CHO-hDLL4; summary table.
Assay [9] addresses T5, mouse DLL4 expressed on CHO cells (mouse, UniProt Q9JI71 27-686).
T5 construct: whole, on cells; also called mDLL4; CHO-mDLL4
The assay can be described thus: competition FMAT CHO-mDLL4; summary table.

Assay [10] addresses T4, cynomolgus DLL4 expressed on CHO cells. The assay is described as follows: FACS; summary table, column taken as cDLL4.
The target in assay [11] is T3, human DLL4 expressed on cells …. The assay is described as follows: FACS; summary table, column taken as hDLL4.
For assay [12], the target named is T1, recombinant human DLL4 (C-terminally …). The assay can be described thus: competition ELISA hDLL4/hNotch1-Fc; summary table.
Assay [13] concerns the target T3, human DLL4 expressed on cells …. The assay is described as follows: competition FMAT, labelled hNotch1-Fc on CHO-hDLL4 cells.
The target in assay [14] is T5, mouse DLL4 expressed on CHO cells. The assay can be described thus: competition FMAT, labelled hNotch1-Fc on CHO-mDLL4 cells.
Assay [15] concerns the target T1, recombinant human DLL4 (C-terminally …). The assay is described as follows: competition ELISA, biotinylated hDLL4 to coated hNotch1-Fc.
For a further assay, the target named is T6, human DLL1 (Alexis) (human, UniProt O00548 18-545, limits assumed).
T6 construct: also called hDLL1
T6 sequence (looked up): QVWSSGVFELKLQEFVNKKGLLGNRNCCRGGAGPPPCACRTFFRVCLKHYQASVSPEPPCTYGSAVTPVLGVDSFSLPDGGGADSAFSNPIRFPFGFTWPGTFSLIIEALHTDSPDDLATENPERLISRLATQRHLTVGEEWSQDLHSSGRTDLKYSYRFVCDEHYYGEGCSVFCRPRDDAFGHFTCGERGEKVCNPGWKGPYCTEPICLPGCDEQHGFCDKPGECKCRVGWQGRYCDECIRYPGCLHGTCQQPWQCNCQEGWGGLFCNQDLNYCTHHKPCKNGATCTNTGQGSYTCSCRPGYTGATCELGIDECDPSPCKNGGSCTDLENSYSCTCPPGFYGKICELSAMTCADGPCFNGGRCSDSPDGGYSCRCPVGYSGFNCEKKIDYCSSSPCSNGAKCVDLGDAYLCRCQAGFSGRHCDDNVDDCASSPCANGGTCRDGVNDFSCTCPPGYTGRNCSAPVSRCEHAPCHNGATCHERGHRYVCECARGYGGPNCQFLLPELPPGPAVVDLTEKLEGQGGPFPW
The assay can be described thus: binding ELISA on coated human DLL1 (Example 5.8, Example 7), OD 450 nm.

Another assay addresses T7, human Jagged-1 (Alexis) (human, UniProt P78504 34-1067, limits assumed).
T7 construct: also called hJag-1; hJAG1
The assay is described as follows: binding ELISA on coated human Jagged-1 (Example 5.8, Example 7), OD 405 nm.

In assay [16] the target is T1, recombinant human DLL4 (C-terminally …). The assay is described as follows: binding ELISA on coated recombinant human DLL4 (Example 5.8, Example 7), OD 450 nm.
Assay [17] deals with T2, recombinant mouse DLL4 (C-terminally …). The assay can be described thus: binding ELISA on coated recombinant mouse DLL4 (Example 5.8, Example 7), OD 450 nm.
The target of assay [18] is T3, human DLL4 expressed on cells …. The assay is described as follows: cell-based or functional assay. The source holds these as a separate data set.
Assay [19] concerns the target T1, recombinant human DLL4 (C-terminally …). The assay can be described thus: cell-based or functional assay.
Assay [20] has the same target. The assay can be described thus: SPR (Biacore), recombinant human DLL4. The method, then: as §1
Assay [21] concerns the target T3, human DLL4 expressed on cells …. The assay can be described thus: competition FMAT, labelled hNotch1-Fc on CHO-hDLL4 cells. This is another data set of the same source.
Assay [22] concerns the target T5, mouse DLL4 expressed on CHO cells. The assay can be described thus: competition FMAT, labelled hNotch1-Fc on CHO-mDLL4 cells. This is another data set of the same source.
Assay [23] addresses T8, recombinant human DLL4 (human, UniProt Q9NR61 25-522).
T8 construct: also called rhDLL4; hDLL4
The assay is described as follows: Biacore off-rate, periplasmic extract.

Assay [24] deals with T8, recombinant human DLL4. The assay can be described thus: hDLL4 ELISA screen, periplasmic extract.
In assay [25] the target is T8, recombinant human DLL4. The assay can be described thus: AlphaScreen biot-hDLL4/hNotch1-Fc, periplasmic extract.

T5 sequence (Q9JI71 27-686): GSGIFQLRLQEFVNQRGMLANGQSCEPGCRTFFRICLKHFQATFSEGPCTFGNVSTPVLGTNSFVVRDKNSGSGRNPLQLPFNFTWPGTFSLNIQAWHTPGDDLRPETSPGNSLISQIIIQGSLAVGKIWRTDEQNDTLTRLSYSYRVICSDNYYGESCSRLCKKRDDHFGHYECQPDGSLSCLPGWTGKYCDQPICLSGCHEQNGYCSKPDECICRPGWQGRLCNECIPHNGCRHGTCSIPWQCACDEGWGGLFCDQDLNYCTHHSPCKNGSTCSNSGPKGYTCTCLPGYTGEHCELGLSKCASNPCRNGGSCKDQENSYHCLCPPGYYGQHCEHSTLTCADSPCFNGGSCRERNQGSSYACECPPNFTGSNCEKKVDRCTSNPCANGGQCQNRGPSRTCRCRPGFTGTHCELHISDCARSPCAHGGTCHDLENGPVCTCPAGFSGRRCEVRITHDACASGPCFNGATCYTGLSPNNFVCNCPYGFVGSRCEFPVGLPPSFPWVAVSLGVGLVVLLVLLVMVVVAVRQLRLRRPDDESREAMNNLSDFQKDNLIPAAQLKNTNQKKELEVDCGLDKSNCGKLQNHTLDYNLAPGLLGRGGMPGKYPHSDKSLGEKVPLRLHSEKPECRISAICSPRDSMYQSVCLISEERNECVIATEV
T2 sequence (Q9JI71 27-532): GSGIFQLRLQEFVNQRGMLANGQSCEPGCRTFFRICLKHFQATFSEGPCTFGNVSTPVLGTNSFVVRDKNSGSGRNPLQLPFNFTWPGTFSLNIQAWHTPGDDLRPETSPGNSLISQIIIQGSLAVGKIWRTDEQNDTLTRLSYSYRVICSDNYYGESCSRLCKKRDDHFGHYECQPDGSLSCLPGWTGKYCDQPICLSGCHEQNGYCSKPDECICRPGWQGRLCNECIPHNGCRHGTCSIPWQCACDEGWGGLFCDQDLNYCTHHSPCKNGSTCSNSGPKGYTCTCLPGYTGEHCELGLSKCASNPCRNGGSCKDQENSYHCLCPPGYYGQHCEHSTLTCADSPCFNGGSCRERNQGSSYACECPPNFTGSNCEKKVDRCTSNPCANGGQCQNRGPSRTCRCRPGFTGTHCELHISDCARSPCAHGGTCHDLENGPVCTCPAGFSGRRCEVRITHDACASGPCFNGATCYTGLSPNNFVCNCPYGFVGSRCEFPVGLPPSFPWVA

B1: DLLBII115A05 (VHH, not shown: small tags and cut ends)
VHH: EVQLVESGGGLVQPGGSLRLSCAASGFTFGSYDMSWVRRSPGKGPEWVSSINSGGGSTYYADFVKGRFTISRDNAKNTLYLQMNSLKPEDTAVYYCAADRYIRARQGDYWGAYEYDYWGQGTQVTVSS
notes: parent VHH; also called 115A05 (wt); 115A5
As for B1, the Kd was 16 nM in [1], 53 nM in assay [2], 16 nM in assay [6] and 53 nM in assay [7]. Moreover, the koff in assay [1] was 0.004 s⁻¹; in assay [2], 0.0091 s⁻¹. The kon stood at 250000 M⁻¹ s⁻¹ in assay [1] and 170000 M⁻¹ s⁻¹ in assay [2]. Further, the “IC50, DLL4-mediated reporter assay” value in [3] turned out to be 1340 nM. Moreover, the EC50 in assay [4] is 13.8 nM; in assay [5] it was 11.3 nM; in assay [10], 13.8 nM; in assay [11], 11.3 nM. Besides, the IC50 in [8] was 107 nM; in assay [9] it was 349 nM; in assay [12], 7.5 nM; in [13] it was 107 nM; in assay [14], 349 nM; in assay [15] it was 7.5 nM. In addition, the binding result with human DLL1 (Alexis) and with human Jagged-1 (Alexis) was “no binding (tested: log[M] -6.1 (about 8e-7 M))” throughout. In addition, the “EC50 (read off the curve)” value in [16] was ~2 nM; in [17] it was ~10 nM.

B2: DLLBII036 (VHH, not shown: small tags and cut ends)
VHH: EVQLVESGGGLVQPGGSLRLSCAASGFTFGSYDMSWVRRAPGKGPEWVSSISSGGGSTYYADYVKGRFTISRDNAKNTLYLQMNSLRPEDTAVYYCAADRYIWARQGEYWGAYEYDYWGQGTLVTVSS
As to B2, the “IC50, DLL4-mediated reporter assay (hDLL4)” value in assay [18] was 78 nM. Further, in assay [19], the “IC50, DLL4-mediated HUVEC proliferation assay” value came out at 7.6 nM and the “Inhibition (%), DLL4-mediated HUVEC proliferation assay” value stood at 100%. In assay [20], the Kd is 0.8 nM, the koff was 0.00055 s⁻¹ and the association rate constant (kon) came out at 660000 M⁻¹ s⁻¹. The molecule also gave an IC50 in [21] of 9.7 nM. Also, the IC50 in [22] worked out at 44.7 nM.

B3: DLLBII33C05 (VHH)
VHH: EVQLVESGGGLVQAGGSLRLSCAASGFTLDNYVIGWFRQAPGKEREEVSCISSSGGSTDYLDSVKGRFTISRDNAKNTVYLQMNSLKPEDTAVYYCAADSLPCYYDKMVYDYWGQGTQVTVSS
For the molecule B3, in the assay with recombinant human DLL4 [23], the koff was 0.00092 s⁻¹. Also, the “% inh” value stood at 86% in the assay with recombinant human DLL4 [24] and 75% in the assay with recombinant human DLL4 [25].

B4: DLLBII018 (VHH, not shown: small tags and cut ends)
VHH: EVQLVESGGGLVQPGGSLRLSCAASGRTFSSYAMAWYRQAPGKEREYVAAIRWSGGTAYYADSVKGRFTISRDNAKNTVYLQMNSLRPEDTAVYYCANRAPDTRLAPYEYDHWGQGTLVTVSS
Consider B4, for which the “IC50, DLL4-mediated reporter assay (hDLL4)” value in assay [18] was determined as 136 nM. Further, in assay [19], the “IC50, DLL4-mediated HUVEC proliferation assay” value was 5.3 nM and the “Inhibition (%), DLL4-mediated HUVEC proliferation assay” value is 100%. In assay [20], the Kd was determined as 0.2 nM, the koff turned out to be 9.4e-05 s⁻¹ and the kon came to 450000 M⁻¹ s⁻¹. In [21], this molecule returned an IC50 of 11 nM. The molecule further gave an IC50 in assay [22] of 15.4 nM.

B5: DLLBII28B06 (VHH)
VHH: EVQLVESGGGLVQAGGSLRLSCAASGSTFSTYAMGWYRQDPGNQRELVAAISSDGSTHYADSVKGRFTISRDNAKNTVYLQMNSLKPEDTAVYYCYAPVKVAGLEYDYWGQGTQVTVSS
Consider B5, for which, in the assay with recombinant human DLL4 [23], the koff came out at 0.0075 s⁻¹. The “% inh” value in the assay with recombinant human DLL4 [24] was determined as 23%; with recombinant human DLL4 [25], 54%.

B6: DLLBII19F12 (VHH)
VHH: EVQLVESGGGLVQAGGSLRLSCTASGSTFTSYAMGWYRQAPGKQRELVAAISSDDSTYYADCVKGRFTISRDNAKNTVYLQMNSLKPEDTAVYYCNAPHSDYDEEAPSDFGSWGQGTQVTVSS
For B6, the koff with recombinant human DLL4 [23] was found to be 0.00049 s⁻¹. In addition, the “% inh” value in the assay with recombinant human DLL4 [24] and with recombinant human DLL4 [25] was 98% in each case.
